Consider one molecule from PMC4115806 (2014).

What is called Kd is the equilibrium constant for the complex coming apart. Low values mean tighter binding, high ones weaker binding.

The target in this assay is T1, Activated protein C (Homo sapiens, UniProt P04070).
T1 chain 1: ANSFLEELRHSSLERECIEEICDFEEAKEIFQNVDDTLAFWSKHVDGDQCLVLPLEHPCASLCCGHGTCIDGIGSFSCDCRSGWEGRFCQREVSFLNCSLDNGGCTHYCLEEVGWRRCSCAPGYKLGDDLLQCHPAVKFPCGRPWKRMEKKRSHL
T1 chain 2: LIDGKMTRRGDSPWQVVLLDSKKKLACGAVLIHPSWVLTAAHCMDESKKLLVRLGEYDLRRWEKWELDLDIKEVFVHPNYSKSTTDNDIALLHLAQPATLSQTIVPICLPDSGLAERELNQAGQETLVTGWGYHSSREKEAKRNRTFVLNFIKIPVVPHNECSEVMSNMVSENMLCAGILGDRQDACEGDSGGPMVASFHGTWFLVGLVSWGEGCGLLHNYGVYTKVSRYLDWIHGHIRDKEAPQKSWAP
The assay can be described thus: flow cytometry.

B1: Endothelial protein C receptor (protein)
chain: SQDASDGLQRLHMLQISYFRDPYHVWYQGNASLGGHLTHVLEGPDTNTTIIQLQPLQEPESWARTQSGLQSYLLQFHGLVRLVHQERTLAFPLTIRCFLGCELPPEGSRAHVFFEVAVNGSSFVSFRPERALWQADTQVTSGVVTFTLQQLNAYNRTRYELREFLEDTCVQYVQKHISAENTKGSQTSRSYTS
modifications: fluorescently labelled APC
The molecule B1 showed a Kd of 77 nM. This counts as double-digit nanomolar.
